The values that follow are results of earlier work, collected in EP1666054A1, “Method for administering insulinotropic peptides” (priority 1998, dated 2006).

For this data set the following is noted: pulmonary delivery; calculated, background statement.

As to parathyroid hormone (1-34), the “Absorption values (delivered through the lungs)” value was “fifteen”.
